The text below walks through data of US7867500B2, “Cofactor that modulates steroid receptor activities” (The United States of America as represented by the …, priority 2004, dated 2011).

Assay [1] has as its target T1, ERα (Homo sapiens, UniProt P03372).
T1 construct: plus VP16 fused to the indicated full length receptors; expressed in transfected cells; host or cells: CV-1
T1 sequence (P03372 1-595): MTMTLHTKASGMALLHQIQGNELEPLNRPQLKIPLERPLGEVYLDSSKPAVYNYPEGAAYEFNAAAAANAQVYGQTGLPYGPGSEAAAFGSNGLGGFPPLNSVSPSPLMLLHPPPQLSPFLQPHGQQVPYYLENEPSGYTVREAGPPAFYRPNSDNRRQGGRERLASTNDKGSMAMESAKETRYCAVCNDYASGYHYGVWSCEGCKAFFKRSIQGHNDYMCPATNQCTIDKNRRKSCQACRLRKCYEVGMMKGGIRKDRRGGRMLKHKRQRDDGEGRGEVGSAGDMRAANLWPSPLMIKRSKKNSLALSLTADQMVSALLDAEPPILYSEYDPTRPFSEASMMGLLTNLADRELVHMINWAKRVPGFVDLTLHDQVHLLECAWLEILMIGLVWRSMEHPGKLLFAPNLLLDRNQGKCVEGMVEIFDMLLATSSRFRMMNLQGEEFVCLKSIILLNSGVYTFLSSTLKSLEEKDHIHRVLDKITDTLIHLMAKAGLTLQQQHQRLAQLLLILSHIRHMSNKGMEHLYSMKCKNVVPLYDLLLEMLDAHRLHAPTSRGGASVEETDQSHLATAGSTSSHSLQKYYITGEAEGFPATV
The assay is described as follows: Mammalian two-hybrid assay with VP16 full length receptor: ERα. The format is cell-based. The conditions noted are these: 1 μM estradiol. The protocol:
(§1) FIG. 6C1-3 illustrate the association of STAMP with assorted steroid/nuclear receptors, including glucocorticoid receptors (GRs), progesterone receptors (PRs), androgen receptors (ARs), estrogen receptors (ER α or β), PPARγ2 receptors, thyroid receptor beta (TR), and retinoid (α) receptors (RAR α or RXR α). Triplicate samples of CV-1 cells were transfected (as described for FIG. 6B) with GAL, or GAL fused to TIF2.4 or STAMP834C, plus VP16 fused to the indicated full length receptors and incubated with the appropriate steroid (1 μM Dex, 20 nM R5020, 1 nM R1881, 0.1 μM triiodothyronine, or 1 μM estradiol, roziglitazone, or 9-cis-retinoic acid). The average relative luciferase activities of 2-3 experiments±S.E.M. were then plotted. FIG. 6C1 illustrates the effects of STAMP association upon GR, PR and AR induced expression. FIG. 6C2 illustrates the effects of STAMP association upon ERα, ERβ and PPARγ2 induced expression. FIG. 6C3 illustrates the effects of STAMP association upon TR, RARα and RXRα induced expression.
(§2) These assays were conducted as described (He et al., 2002). […]

Assay [2] has as its target T2, RXR α (Homo sapiens, UniProt P19793).
T2 construct: plus VP16 fused to the indicated full length receptors; expressed in transfected cells; host or cells: CV-1
T2 sequence (P19793 1-462): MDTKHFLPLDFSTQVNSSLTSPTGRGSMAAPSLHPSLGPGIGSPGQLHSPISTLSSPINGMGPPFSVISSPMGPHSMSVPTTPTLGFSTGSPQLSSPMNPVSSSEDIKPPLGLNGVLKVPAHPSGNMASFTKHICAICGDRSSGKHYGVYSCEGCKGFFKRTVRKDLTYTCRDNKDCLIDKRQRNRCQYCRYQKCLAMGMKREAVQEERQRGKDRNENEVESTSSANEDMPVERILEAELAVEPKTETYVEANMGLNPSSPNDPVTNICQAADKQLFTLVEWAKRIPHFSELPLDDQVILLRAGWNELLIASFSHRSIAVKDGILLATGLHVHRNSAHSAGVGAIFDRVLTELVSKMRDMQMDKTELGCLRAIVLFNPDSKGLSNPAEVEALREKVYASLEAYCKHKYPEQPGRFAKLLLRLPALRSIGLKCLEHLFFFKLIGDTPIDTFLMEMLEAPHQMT
The experiment in a line: Mammalian two-hybrid assay with VP16 full length receptor: RXRα. The format is cell-based. The conditions noted are these: 1 μM 9-cis-retinoic acid. As to the method: as §1, §2

B1: STAMP834C: STAMP fragment amino acids 834-1277, receptor interaction domain (RID) (protein)
chain: GDHPETIMEEVKIKPPKQQQTTEIHSDKLSRFTTSAEKEAKLVYSNSSSGPTATLQKIPNTHLSSVTTSDLSPGPCHHSSLSQIPSAIPSMPHQPTILLNTVSASASPCLHPGAQNIPSPTGLPRCRSGSHTIGPFSSFQSAAHIYSQKLSRPSSAKAGSCYLNKHHSGIAKTQKEGEDASLYSKRYNQSMVTAELQRLAEKQAARQYSPSSHINLLTQQVTNLNLATGIINRSSASAPPTLRPIISPSGPTWSTQSDPQAPENHSSSPGSRSLQTGGFAWEGEVENNVYSQATGVVPQHKYHPTAGSYQLQFALQQLEQQKLQSRQLLDQSRARHQAIFGSQTLPNSNLWTMNNGAGCRISSATASGQKPTTLPQKVVPPPSSCASLVPKPPPNHEQVLRRATSQKASKGSSAEGQLNGLQSSLNPAASVPITSSTDPAHTKI
In the case of B1, the “interaction with estrogen receptor α” value in assay [1] is on record as “lack of interaction”. The “interaction with RXR α” value in assay [2] is listed as “lack of interaction”.
